Substrate in series [1]: O=CC(O)COP(=O)(O)O
Nature of the series: purified protein. The format is biochemical, Arabidopsis thaliana. The settings on record: non-glycated enzyme, 0.1 mM NADH, alpha-glycerophosphate dehydrogenase 5 U, 10 mM sodium phosphate pH 7.0, 100 mM NaCl, 25 °C.

Substrate in series [2]: O=CC(O)COP(=O)(O)O
Description: purified protein. The note with it: non-glycated enzyme, 10 mM NAD+, 3 mM DTT, 10 mM sodium phosphate pH 8.5, 100 mM NaCl, 25 °C.

B1: TPI (chloroplastic triosephosphate isomerase) (Arabidopsis thaliana) (protein)
chain: MAGSGKFFVGGNWKCNGTKDSIAKLISDLNSATLEADVDVVVSPPFVYIDQVKSSLTDRIDISGQNSWVGKGGAFTGEISVEQLKDLGCKWVILGHSERRHVIGEKDEFIGKKAAYALSEGLGVIACIGEKLEEREAGKTFDVCFAQLKAFADAVPSWDNIVVAYEPVWAIGTGKVASPQQAQEVHVAVRGWLKKNVSEEVASKTRIIYGGSVNGGNSAELAKEEDIDGFLVGGASLKGPEFATIVNSVTSKKVAA
notes: measured mass 29273 Da; homodimer
As for B1, in the series “purified protein [1]”, the Km is given as 1.21 (±0.39) mM; the kcat (commonly the number of substrate molecules converted per active site and unit of time at saturation) was found to be 18.4 ± 2.25 s⁻¹; the specificity constant (kcat/Km) (in general, the turnover number divided by the Michaelis constant) is 15000 M⁻¹ s⁻¹.

B2: GAPC1 (cytosolic glyceraldehyde-3-phosphate dehydrogenase C1) (Arabidopsis thaliana) (protein)
chain: MADKKIRIGINGFGRIGRLVARVVLQRDDVELVAVNDPFITTEYMTYMFKYDSVHGQWKHNELKIKDEKTLLFGEKPVTVFGIRNPEDIPWAEAGADYVVESTGVFTDKDKAAAHLKGGAKKVVISAPSKDAPMFVVGVNEHEYKSDLDIVSNASCTTNCLAPLAKVINDRFGIVEGLMTTVHSITATQKTVDGPSMKDWRGGRAASFNIIPSSTGAAKAVGKVLPALNGKLTGMSFRVPTVDVSVVDLTVRLEKAATYDEIKKAIKEESEGKLKGILGYTEDDVVSTDFVGDNRSSIFDAKAGIALSDKFVKLVSWYDNEWGYSSRVVDLIVHMSKA
Consider B2, for which, in “purified protein [2]”, the Km is given as 0.77 (±0.21) mM, the kcat is 76.4 s⁻¹ and the kcat/Km was 99000 M⁻¹ s⁻¹.

These data come from paper PMC6322573, “Profiling of advanced glycation end products uncovers abiotic stress-specific target proteins in Arabidopsis” (Journal of Experimental Botany, 2018).
